“Also recorded” adds a separate entry of the source.
B1: TAT-Casp3MUT: catalytically inactive TAT-Casp3 with Met substituted for the active site Cys163 residue (protein)
chain: GRKKRRQRRRGYPYDVPDYACTERQANFLGKIWPGISLDNSYKMDYPEMGLCIIINNKNFHKSTGMTSRSGTDVDAANLRETFRNLKYEVRNKNDLTREEIVELMRDVSKEDHSKRSSFVCVLLSHGEEGIIFGTNGPVDLKKITNFFRGDRCRSLTGKPKLFIIQAMRGTELDCGIETSQVSQNYPIVQNLQGVDDDMACHKIPVEADFLYAYSTAPGYYSWRNSKDGSWFIQSLCAMLKQYADKLEFMHILTRVNRKVATEFESFSFDATFHAKKQIPCIVSMLTKELYFYH
modifications: left off: small tags and cut ends

What was measured:
Jurkat T cells [1] = assay: Cytotoxicity of TAT-Casp3 on uninfected Jurkat T cells, viability by Trypan Blue exclusion; settings: 100 nM TAT-Casp3 or 50 nM TAT-HIV Pr, uninfected Jurkat T cells, 16 hr
Experimental: In addition, the ability of TAT-Casp3 protein to induce apoptosis in cells co-transduced with TAT-HIV Pr protein was tested. Jurkat T cells were treated with 100 nM TAT-Casp3WT or TATCasp3MUT proteins alone or in combination with 50 nM TAT-HIV Pr protein and assayed for cell viability 16 hr post-treatment (FIG. 11A). […] See Salvensen, G. S., et al., Henkart, P. A., Cohen, G. M., Woo, M., et al., Enari, M. et al., Liu, X., et al. (supra).
FIG. 11A Cultures of Jurkat T cells were transduced with combinations of TAT-Casp3WT (WT), TAT-Casp3MUT (MUT) and TAT-HIV Protease (Pr) proteins for 16 hr and analyzed for cell viability. […] FIG. 11B Cultures of Jurkat T cells were co-transduced with TAT-Casp3WT (WT), TAT-Casp3MUT (MUT) proteins in combination with TAT-HIV Pr (Pr) protein and analyzed for kinetics of cell viability as indicated.
1. Cell culture-p16(−) Jurkat T cells (ATCC) were grown as described. See Lissy, N. A., et al. (supra). For in vivo substrate cleavage, 1×10^6 cells were transduced with 100 nM TAT-p16, TAT-A-p16, TAT-Casp3MUT and/or 50 nM TAT-HIV Pr proteins for 1, 5 or 8 hr as indicated and analyzed by anti-p16 (Santa Cruz) or anti-Casp3 (Pharmingen) immunoblot analysis. See Ezhevsky, S. A., et al. (supra). For cytotoxicity of TAT-Casp3 on uninfected cells, 1×10^6 cells were transduced with 100 nM TAT-Casp3WT, TAT-Casp3MUT and/or 50 nM TAT-HIV Pr proteins for 16 hr and assayed for viability by Trypan Blue exclusion and/or genomic DNA damage by TUNEL assay (Trevigen). Number of TUNEL positive cells reported as per high-powered microscopic field with four fields per experiment averaged. TAT-Casp3 activity was measured by incubation of 20 μg of whole cell lysate with 50 μM DEVD-AFC and fluorescent AFC formation measured on a FL500 microplate fluorescence reader (Bio-Tek) as described. See Xiang, J., et al., (supra). Cells were preincubated with 1 μg/ml Ritonavir (Abbott Labs) for 1 hr prior to transduction. For cytotoxicity of TAT-Casp3 on infected cells, Jurkat cultures were infected with 100 ng p24 Ag equivalent NLHX HIV-I strain for 7-14 days, assayed microscopically for cytopathic effects, then replated at 1×10^6/ml and transduced with 100 nM of TAT-Casp3WT or TAT-Casp3MUT proteins for 16 hr followed by exclusionary dye viability analysis. Infected cells were pretreated with 1 μg/ml Ritonavir for 24 hr prior to transduction with TAT-Casp3WT protein. See Xiang, J., et al., (supra). For Flow Cytometry (FACS) analysis, fluorescein (FITC) conjugated TAT fusion proteins were added to Jurkat T cell culture media and 1×10^4 cells were analyzed by FACS as described. See Ezhevsky, S. A., et al. (supra).

Jurkat T cells [2] = assay: FACS and confocal analysis of FITC-labeled TAT fusion proteins added to Jurkat T cells; type: cell-based; settings: FITC-labeled protein added to media of Jurkat T cells
Experimental: To test the ability of TAT-Casp3 proteins to transduce into cells, TAT-Casp3 proteins were conjugated to fluorescein (FITC), then added directly to the media of Jurkat T cells and analyzed by Flow Cytometry (FACS) (FIGS. 9B-C). Both TAT-Casp3WT and TAT-Casp3MUT proteins rancidly transduced into ˜100% of cells, achieving maximum intracellular concentration in less than 20 min. In addition, based on the narrow peak width before and after addition of FITC labeled proteins, individual cells within the population contain near identical intracellular concentrations of TAT-Casp3-FITC protein. […] Thus, TAT-Casp3 proteins readily transduce into 100% of all cells inca rapid and concentration-dependent fashion.
The generation and transduction of TAT fusion proteins shown in FIGS. 9A-E are explained in more detail as follows: FIG. 9A. Diagram depicting HIV cleavage site sequences and domains of TAT fusion proteins. FIGS. 9B-D. FACS kinetic analysis of fluorescein (FITC) labeled TAT-Casp3WT, TAT-Casp3MUT and TAT-HIV Pr proteins added to cells at 0, 20 and 30 min. FIG. 9E. FACS dose analysis of 3, 6, and 12 nM TAT-Casp3WT-FITC protein added to cells at I hr post-addition. Note rapid, concentration-dependent transduction of all FITC labeled protein into ˜100% of cells and near identical intracellular concentration within the population as measured by FACS peak width of control vs. transduced cells.
(§1) 1. […] See Lissy, N. A., et al. (supra). […] See Ezhevsky, S. A., et al. (supra). […] See Xiang, J., et al., (supra). […] See Xiang, J., et al., (supra). […] See Ezhevsky, S. A., et al. (supra).

Jurkat T cells [3] = assay: TUNEL assay for degraded genomic DNA in transduced Jurkat T cells; type: cell-based; settings: for TUNEL positive cells, protein transduced alone: 100 nM TAT-Casp3 or 50 nM TAT-HIV Pr
Experimental: (§2) Additionally, transduced cultures were tested for degraded genomic DNA by TUNEL assay. See Coates, P. J., Molecular methods for the identification of apoptosis in tissues. J. Histotechnology 17: 261 (1994). […] Activation of TAT-Casp3 was also assayed by its ability to cleave an artificial Caspase-3 substrate. […] See Xiang, J., et al., Bax-induced cell death may not require interleukin 1B-converting enzyme-like proteases. Proc. Natl. Acad. Sci. USA 93: 14550 (1996).
(§3) The HIV Protease activates TAT-Casp3WT protein shown in FIGS. 12A-B are explained in more detail as follows. FIG. 12A. […] Abscissa: TUNEL positive cells per high-powered microscopic field; Ctrl, control addition of PBS to cultures; error bars represent SD. FIG. 12B. […] Ctrl, control PBS addition; ocFAS crosslinking, positive control.
as §1

[4] = tested on: caspase-3 activity (DEVD-AFC cleavage); assay: Caspase-3 enzyme assay, cleavage of DEVD-AFC by whole cell lysate of transduced Jurkat T cells; type: cell-based; settings: 6 hr
Experimental: as §2, §3, §1

HIV Protease = target: T1, HIV Protease (Human immunodeficiency virus type 1 group M subtype B, UniProt P04585); assay: In vivo substrate cleavage by co-transduced TAT-HIV Pr in Jurkat T cells, immunoblot; type: cell-based; settings: 100 nM substrate, 50 nM TAT-HIV Pr, Jurkat T cells, immunoblot
T1 construct: PCR cloning the HIV Protease gene from HXB2R HIV strain; 6xHis (from the pTAT vector) (N); made in house; the purified protein was added to Jurkat T cells
Experimental: To assay for in vivo cleavage, p 16(−) Jurkat T cells were transduced with 100 nM TAT-Ap16 or control TAT-p16 protein (no HIV cleavage site) alone or in combination with 50 nM TATHIV Pr fusion protein for 5 hr and analyzed by anti-p16 immunoblot for in vivo cleavage at the HIV A proteolytic cleavage site (FIG. 10A). […] Size analysis of the cleaved TAT-A-p 16 protein was consistent with retention of the residual HIV half site present on the N′ terminus of p 16 (FIG. 10A, see lane 4 vs. 5).
Further, the TAT-Casp3MUT protein was transduced in combination with TAT-HIV Pr protein into cells (FIG. 10B).
The in vivo processing in co-transduced cells shown in FIGS. 10A and 10B is explained in more detail as follows. FIG. 10A. Cultures of p16(−) Jurkat T cells were transduced with TAT-p 16 or TAT-A-p 16 substrate proteins in combination with TATHIV Pr proteins for 5 hr and subjected to anti-p 16 immunoblot analysis. […] WCE, HepG2 whole cell lysate containing wild type endogenous p16; A-p16, cleaved TAT-A-16 product retaining the HIV half site on p16. FIG. 10B. Cultures of Jurkat T cells were transduced with TATCasp3MUT protein (TAT-“D” site-p 17 domain-“A” site-p12 domain) alone or in combination with TAT-HIV Pr (Pr) protein as indicated and immunoblotted with anti-Caspase-3 antibodies specific for the p17 domain. TAT-D-p17-A, cleaved product of TAT-Casp3 containing the N′ terminal HIV A half site.
as §1

[5] = tested on: Jurkat T cells infected with the NLHX strain of HIV-I; assay: Cytotoxicity of TAT-Casp3 on HIV infected Jurkat cultures, exclusionary dye viability analysis; type: cell-based; settings: 100 nM, 16 hr, cultures approximately 50% HIV positive
Source text: To make this determination, Jurkat T cells were infected for 7-14 days with the NLHX strain of HIV-I and examined microscopically for HIV cytopathic effects. See Westervelt, P., et al., Identification of a determinant within the HIV-1 surface envelope glycoprotein critical for productive infection of cultured primary monocytes. Proc. Natl. Acad. Sci USA 88: 3097 (1991). At the start of each transduction experiment approximately 50% of the culture was HIV positive. HIV infected cultures were transduced for 16 hr with 100 nM TAT-Casp3WT or TATCasp3MUT protein and then assayed for cell viability (FIG. 13). […] In addition, we detected both the appearance of cells containing <2N DNA content and cells with condensed nuclei in TAT-Casp3 treated cells.
To determine if TAT-Casp3WT induced apoptosis was dependent on active HIV Protease in the infected cultures, HIV infected cultures were pretreated with 1 μg/ml Ritonavir prior to transduction with 100 nM TAT-Casp3WT protein (FIG. 5). […] In addition, the observed increased survival of Ritonavir treated cells is consistent with increased longevity of protease inhibitor treated HIV infected cells. See Coffin, J. M., et al. (supra).
The specific killing of HIV infected cells shown in FIG. 5 is explained in more detail as follows. Jurkat T cells were infected for 7-14 days with HIV strain NLHX, then transduced with TAT-Casp3WT (WT) or TAT-Casp3MUT (MUT) proteins for 16 hr and assayed for cell viability. […] Ctrl, control addition of PBS to cultures; abscissa, % viability of HIV positive cells in the population at start of transduction; error bars represent SD.
as §1

| Molecule | cytotoxicity when transduced alone (Jurkat T cells [1]) | cells transduced (Jurkat T cells [2]) | TUNEL positive cells, protein transduced alone (Jurkat T cells [3]) | caspase activity, protein transduced alone [4] | cleavage at the HIV cleavage site when co-transduced with TAT-HIV Pr (HIV Protease) | TUNEL positive cells, co-transduced with TAT-HIV Pr (Jurkat T cells [3]; 100 nM plus 50 nM TAT-HIV Pr) | effect on viability of HIV positive cells [5] | effect on viability of HIV positive cells ([5]; listed as TATCasp3MUT) |
| --- | --- | --- | --- | --- | --- | --- | --- | --- |
| TAT-HIV Pr: transducible HIV Protease, gene from HXB2R HIV strain cloned into pTAT | absence | 100% | only background levels; also recorded: remained at background levels | only background levels | – | – | – | – |
| B1 | – | ~100% | only background levels; also recorded: remained at background levels | only background levels | specific cleavage | only background; also recorded: remained at background levels | no effect | negligible effects |

Source: patent US6645501B2, “Anti-pathogen system and methods of use thereof” (Washington University, priority 1997, dated 2003)
